Measured values taken from patent publication US20070218502A1 (Scripps Research, published 2007).
Ends that are not written are not given here.

Legend:
[1] = target: T1, peptide tag (SEQ ID NO:16), unlabeled synthetic peptide (C-terminal amide); assay: equilibrium fluorescence titration
T1 construct: Short peptide tag derived from the leucine zipper of the GCN4 transcription factor; also called protein tag peptide; unlabeled peptide
T1 peptide: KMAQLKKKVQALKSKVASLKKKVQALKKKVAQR

[2] = target: T1, peptide tag (SEQ ID NO:16), unlabeled …; assay: equilibrium fluorescence anisotropy titration, 12.52 nM labeled peptide, 0.1x PBS, 25° C., 1:1 binding fit
[3] = target: T2, human high affinity IgE receptor (FcεRI) α-chain with the NOVA-2 peptide tag at the C-terminus, expressed in … (human, UniProt P12319 26-257); assay: fluorescence imaging in live Cos-7 cells after microinjection
T2 construct: whole, on cells; Retained in the endoplasmic reticulum membrane of the cells; also called peptide-tagged FcεRI α-chain; NOVA2-tagged α-chain
T2 sequence: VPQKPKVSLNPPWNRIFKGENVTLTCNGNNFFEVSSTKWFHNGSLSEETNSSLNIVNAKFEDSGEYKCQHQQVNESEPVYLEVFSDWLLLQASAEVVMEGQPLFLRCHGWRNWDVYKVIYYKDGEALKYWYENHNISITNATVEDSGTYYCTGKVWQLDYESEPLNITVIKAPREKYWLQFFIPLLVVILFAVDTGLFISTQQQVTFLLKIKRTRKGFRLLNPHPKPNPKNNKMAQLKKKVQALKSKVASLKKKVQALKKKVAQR

[4] = target: T3, cdc42-GTPγS (recombinant 6His-tagged cdc42 loaded with GTPγS) (UniProt P60953 1-191, limits assumed); assay: fluorescence of dye-labeled CBD in solution
T3 construct: not shown: 6His tag
T3 sequence (P60953 whole entry): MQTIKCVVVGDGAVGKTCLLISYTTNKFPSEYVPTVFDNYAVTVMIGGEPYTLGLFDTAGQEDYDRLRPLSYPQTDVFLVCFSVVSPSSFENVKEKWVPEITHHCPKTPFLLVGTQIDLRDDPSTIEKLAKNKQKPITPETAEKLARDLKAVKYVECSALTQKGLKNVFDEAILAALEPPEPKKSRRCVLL

[5] = target: T3, cdc42-GTPγS (recombinant 6His-tagged …); assay: fluorescence of mero-CBD with saturating cdc42-GTPγS
[6] = target: T4, RhoA-GTPγS (recombinant 6His-tagged RhoA pre-equilibrated with GTPγS) (UniProt P61586 1-193, limits assumed); assay: fluorescence of mero-CBD in solution
T4 construct: not shown: 6His tag
T4 sequence (P61586 whole entry): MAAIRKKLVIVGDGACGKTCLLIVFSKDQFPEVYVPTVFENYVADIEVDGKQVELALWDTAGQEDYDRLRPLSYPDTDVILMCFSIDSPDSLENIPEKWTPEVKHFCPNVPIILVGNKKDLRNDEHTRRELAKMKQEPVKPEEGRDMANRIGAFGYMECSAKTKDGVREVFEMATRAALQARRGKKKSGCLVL

B1: tetramethylrhodamine-labeled leucine zipper peptide (SEQ ID NO:15) with YGRKKRRNRRRP (SEQ ID NO:17) appended to the N-terminus, as used in the in vitro … (peptide)
peptide: YGRKKRRNRRRPCEMAQLEKEVQALESEVASLEKEVQALEKEVAQR-NH2
modifications: not fully specified
notes: Peptide derived from the GCN4 leucine zipper; also called labeled peptide; TMRPep
In the case of B1, the Kd [1] is reported as 5 nM and the Kd [2] is reported as 5.4 nM.

B2: rhodamine-labeled peptide (SEQ ID NO:15, tetramethylrhodamine on Lys 21), as microinjected into cells (peptide)
peptide: CEMAQLEKEVQALESEVASLEKEVQALEKEVAQR-NH2
modifications: also: tetramethylrhodamine on Lys stated as position 21, which does not match a Lys in the given chain
notes: also called rhodamine peptide biosensor; rhodamine-peptide
B2: binds [3].

B3: mero-CBD-F271C conjugate (Cdc42-binding fragment of human WASP, amino acids 201 to 321, F271C, labeled with merocyanine dye) (other)
chain: DIQNPDITSSRYRGLPAPGPSPADKKRSGKKKISKADIGAPSGFKHVSHVGWDPQNGFDVNNLDPDLRSLCSRAGISEAQLTDAETSKLIYDFIEDQGGLEAVRQEMRRQEPLPPPPPPSR
modifications: merocyanine dye of FIG. 11 on Cys 271 (WASP numbering)
notes: that entry has 120 residues and ends at WASP 320; also called CBD-A4C; CBD biosensor; not shown: C-terminal 6His tag from pET23a
B3 was tested, and the “fold fluorescence change on binding” value [4] was about 3.5 fold, the “fold increase in excitation and emission maxima” value [5] was about 3.5 fold and the binding result [6] was “no binding”.
